Assay results reported in paper PMC9482650, “Quantitative fragmentomics allow affinity mapping of interactomes” (Nature Communications, 2022).

Columns and labels:
Assay in all cases: holdup assay
Design in all cases: key: below the threshold = too weak to quantify, mostly under pKd 3.1 to 4
[1] = target: T1, MPP2, Q14168
T1 sequence (Q14168 180-250, limits assumed, looked up): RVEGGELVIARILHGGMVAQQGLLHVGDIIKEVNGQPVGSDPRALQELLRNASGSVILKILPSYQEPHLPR

[2] = target: Inadl_1, Q8NI35
[3] = target: MAST2, Q6P0Q8
[4] = target: GRIP2_5, Q9C0E4
[5] = target: T2, LRRC7, Q96NW7
T2 sequence (Q96NW7 1440-1537, limits assumed, looked up): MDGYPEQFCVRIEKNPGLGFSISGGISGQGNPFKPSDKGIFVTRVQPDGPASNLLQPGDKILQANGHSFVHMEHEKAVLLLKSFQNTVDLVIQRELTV

[6] = target: GRIP2_6, Q9C0E4
[7] = target: T3, TX1BP3, O14907
T3 sequence (O14907 10-122, limits assumed, looked up): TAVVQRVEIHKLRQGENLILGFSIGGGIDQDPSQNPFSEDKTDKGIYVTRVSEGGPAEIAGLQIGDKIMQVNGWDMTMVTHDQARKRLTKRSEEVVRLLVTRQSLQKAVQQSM

[8] = target: T4, SNTB1, Q13884
T4 sequence (Q13884 107-205, limits assumed, looked up): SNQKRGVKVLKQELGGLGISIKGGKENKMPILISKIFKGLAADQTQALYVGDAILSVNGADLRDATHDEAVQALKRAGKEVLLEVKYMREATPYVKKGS

[9] = target: T5, NHERF3_1, Q5T2W1
T5 sequence (Q5T2W1 4-100, limits assumed, looked up): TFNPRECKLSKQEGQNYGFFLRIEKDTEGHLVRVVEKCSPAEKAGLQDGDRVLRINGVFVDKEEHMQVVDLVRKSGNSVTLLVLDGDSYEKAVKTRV

[10] = target: T6, DLG3_1, Q92796
T6 sequence (Q92796 125-227, limits assumed, looked up): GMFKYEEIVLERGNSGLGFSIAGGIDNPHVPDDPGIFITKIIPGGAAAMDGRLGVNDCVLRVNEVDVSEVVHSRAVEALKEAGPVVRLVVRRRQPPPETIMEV

[11] = target: TJP1_2, Q07157
[12] = target: T7, MPP6, Q9NZW5
T7 sequence (Q9NZW5 125-219, limits assumed, looked up): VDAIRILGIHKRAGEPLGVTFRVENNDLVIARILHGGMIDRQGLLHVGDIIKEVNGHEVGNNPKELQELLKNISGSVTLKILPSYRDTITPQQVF

[13] = target: DLG2_2, Q15700
[14] = target: GORASP2, Q9H8Y8
[15] = target: T8, LIN7B, Q9HAP6
T8 sequence (Q9HAP6 88-185, limits assumed, looked up): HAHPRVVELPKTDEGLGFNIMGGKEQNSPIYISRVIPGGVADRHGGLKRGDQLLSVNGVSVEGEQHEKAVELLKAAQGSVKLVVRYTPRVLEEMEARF

[16] = target: T9, NHERF3_4, Q5T2W1
T9 sequence (Q5T2W1 373-468, limits assumed, looked up): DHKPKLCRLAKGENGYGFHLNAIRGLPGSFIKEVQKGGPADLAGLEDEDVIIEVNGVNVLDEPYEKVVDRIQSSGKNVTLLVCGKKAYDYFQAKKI

[17] = target: LDB3, O75112
[18] = target: DLG2_3, Q15700
[19] = target: SCRIB_2, Q14160
[20] = target: T10, PDZRN3_1, Q9UPQ7
T10 sequence (Q9UPQ7 244-349, limits assumed, looked up): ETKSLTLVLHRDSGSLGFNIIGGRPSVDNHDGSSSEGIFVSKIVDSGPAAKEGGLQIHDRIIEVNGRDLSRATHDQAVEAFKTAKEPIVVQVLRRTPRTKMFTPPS

[21] = target: GRIP2_3, Q9C0E4
[22] = target: FRMPD2_1, Q68DX3
[23] = target: ARHGEF12, Q9NZN5-2
[24] = target: T11, HTRA4, P83105
T11 sequence (P83105 378-476, limits assumed, looked up): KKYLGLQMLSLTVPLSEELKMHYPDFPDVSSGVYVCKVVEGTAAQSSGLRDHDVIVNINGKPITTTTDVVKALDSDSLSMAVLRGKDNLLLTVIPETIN

[25] = target: PDLIM1, O00151
[26] = target: LNX1_3, Q8TBB1
[27] = plain residues with an end cap or a label only (N-terminal biotin on a linker: ttds)
[28] = plain residues with an end cap or a label only (N-terminal biotin on a linker: ahx)
[29] = plain residues with an end cap or a label only (N-terminal biotin on a linker: ado-ado)

Chain of GRIP2_5, Q9C0E4 (Q9C0E4 544-642): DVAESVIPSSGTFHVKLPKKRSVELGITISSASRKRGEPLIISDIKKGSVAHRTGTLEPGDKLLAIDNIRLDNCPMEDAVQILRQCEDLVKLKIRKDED
Chain of TJP1_2, Q07157 (Q07157 181-274): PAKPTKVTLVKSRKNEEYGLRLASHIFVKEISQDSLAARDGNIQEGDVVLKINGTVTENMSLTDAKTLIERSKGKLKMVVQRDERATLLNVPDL
Chain of SCRIB_2, Q14160 (Q14160 857-960): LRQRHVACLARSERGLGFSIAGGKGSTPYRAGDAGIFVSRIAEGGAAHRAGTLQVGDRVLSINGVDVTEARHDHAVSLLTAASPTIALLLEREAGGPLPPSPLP
Chain of ARHGEF12, Q9NZN5-2 (Q9NZN5 other isoform, or with tags, fused parts or gaps): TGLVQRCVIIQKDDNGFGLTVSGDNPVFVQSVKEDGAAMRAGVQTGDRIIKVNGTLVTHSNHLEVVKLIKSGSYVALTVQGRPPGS
Chain of MAST2, Q6P0Q8 (Q6P0Q8 1099-1202): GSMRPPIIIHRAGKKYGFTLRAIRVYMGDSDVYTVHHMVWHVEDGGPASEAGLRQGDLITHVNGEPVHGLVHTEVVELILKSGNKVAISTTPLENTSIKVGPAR
Chain of Inadl_1, Q8NI35 (Q8NI35 113-229): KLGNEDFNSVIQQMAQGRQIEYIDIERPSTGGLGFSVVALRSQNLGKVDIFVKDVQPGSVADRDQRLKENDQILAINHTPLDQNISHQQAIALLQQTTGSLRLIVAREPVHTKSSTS
Chain of GRIP2_6, Q9C0E4 (Q9C0E4 648-740): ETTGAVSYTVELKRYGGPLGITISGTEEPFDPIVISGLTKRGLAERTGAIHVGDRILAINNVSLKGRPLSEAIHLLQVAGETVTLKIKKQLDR
Chain of LNX1_3, Q8TBB1 (Q8TBB1 500-596): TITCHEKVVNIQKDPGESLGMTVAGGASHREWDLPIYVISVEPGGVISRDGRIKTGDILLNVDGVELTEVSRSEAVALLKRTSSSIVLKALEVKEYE
Chain of FRMPD2_1, Q68DX3 (Q68DX3 770-861): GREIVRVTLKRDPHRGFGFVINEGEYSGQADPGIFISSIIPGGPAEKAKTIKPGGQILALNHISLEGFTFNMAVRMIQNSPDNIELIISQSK
Chain of LDB3, O75112 (O75112 1-94): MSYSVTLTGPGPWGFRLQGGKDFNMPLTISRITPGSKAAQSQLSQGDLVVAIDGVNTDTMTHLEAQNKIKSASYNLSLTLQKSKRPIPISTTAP
Chain of PDLIM1, O00151 (O00151 1-87): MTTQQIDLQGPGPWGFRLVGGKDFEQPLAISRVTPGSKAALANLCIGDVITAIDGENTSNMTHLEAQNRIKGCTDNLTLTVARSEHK
Chain of GRIP2_3, Q9C0E4 (Q9C0E4 238-339): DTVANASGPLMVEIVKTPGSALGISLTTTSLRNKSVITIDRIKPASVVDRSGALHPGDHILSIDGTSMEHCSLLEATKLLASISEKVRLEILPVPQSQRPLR

In the case of QFQYAKESYI [TAGAP, Q8N103], the pKd [1, 27] is reported as “below the threshold”, the pKd [2, 27] is reported as “below the threshold” and the pKd [3, 27] is reported as 4.69. For the same binder, the pKd [4, 27] was “below the threshold”, the pKd [5, 27] was “below the threshold” and the pKd [6, 27] was “below the threshold”. The pKd [7, 27] was 4.13, the pKd [8, 27] was 4.92 and the pKd [9, 27] was 5.08. For the same binder, the pKd [10, 27] was “below the threshold”, the pKd [11, 27] was “below the threshold” and the pKd [12, 27] was “below the threshold”. For the same binder, the pKd [13, 27] was 4.16, the pKd [14, 27] was 3.9 and the pKd [15, 27] was “below the threshold”. The pKd [16, 27] was “below the threshold”, the pKd [17, 27] was “below the threshold” and the pKd [18, 27] was 3.95. The pKd [19, 27] was 3.56, the pKd [20, 27] was 4.18 and the pKd [21, 27] was “below the threshold”. The pKd [22, 27] was “below the threshold”, the pKd [23, 27] was 3.91 and the pKd [24, 27] was “below the threshold”. For the same binder, the pKd [25, 27] was “below the threshold” and the pKd [26, 27] was “below the threshold”.

In the case of SRRPRTETQV [HPV31-E6, P17386], the pKd [1, 27] is reported as “below the threshold”, the pKd [2, 27] is reported as “below the threshold” and the pKd [3, 27] is reported as 5.23. The pKd [4, 27] was “below the threshold”, the pKd [5, 27] was “below the threshold” and the pKd [6, 27] was “below the threshold”. It also gave a pKd [7, 27] of 4.61, a pKd [8, 27] of 4.15 and a pKd [9, 27] of 4.32. The pKd [10, 27] was 4.44, the pKd [11, 27] was “below the threshold” and the pKd [12, 27] was “below the threshold”. It also gave a pKd [13, 27] of 5.37, a pKd [14, 27] of 3.65 and a pKd [15, 27] of 3.68. For the same binder, the pKd [16, 27] was “below the threshold”, the pKd [17, 27] was “below the threshold” and the pKd [18, 27] was 5.1. For the same binder, the pKd [19, 27] was 4.38, the pKd [20, 27] was 4.09 and the pKd [21, 27] was “below the threshold”. The pKd [22, 27] was “below the threshold”, the pKd [23, 27] was 3.86 and the pKd [24, 27] was “below the threshold”. The pKd [25, 27] was “below the threshold” and the pKd [26, 27] was “below the threshold”.

In the case of TIVSWPGTFL [LNX1, Q8TBB1], the pKd [1, 28] is reported as “below the threshold”, the pKd [2, 28] is reported as “below the threshold” and the pKd [3, 28] is reported as 4.59. For the same binder, the pKd [4, 28] was “below the threshold”, the pKd [5, 28] was “below the threshold” and the pKd [6, 28] was “below the threshold”. For the same binder, the pKd [7, 28] was 4.39, the pKd [8, 28] was “below the threshold” and the pKd [9, 28] was 5.34. The pKd [10, 28] was “below the threshold”, the pKd [11, 28] was “below the threshold” and the pKd [12, 28] was “below the threshold”. The pKd [13, 28] was “below the threshold”, the pKd [14, 28] was “below the threshold” and the pKd [15, 28] was 3.48. For the same binder, the pKd [16, 28] was “below the threshold”, the pKd [17, 28] was “below the threshold” and the pKd [18, 28] was “below the threshold”. For the same binder, the pKd [19, 28] was “below the threshold”, the pKd [20, 28] was 3.85 and the pKd [21, 28] was “below the threshold”. The pKd [22, 28] was “below the threshold”, the pKd [23, 28] was “below the threshold” and the pKd [24, 28] was 4. The pKd [25, 28] was 3.63 and the pKd [26, 28] was “below the threshold”.

LCALPKVTTV [AGMAT, Q9BSE5] was tested, and the pKd [1, 27] was “below the threshold”, the pKd [2, 27] was 3.57 and the pKd [3, 27] was 4.88. For the same binder, the pKd [4, 27] was “below the threshold”, the pKd [5, 27] was 3.63 and the pKd [6, 27] was “below the threshold”. For the same binder, the pKd [7, 27] was 4.07, the pKd [8, 27] was 4.73 and the pKd [9, 27] was “below the threshold”. The pKd [10, 27] was 4.27, the pKd [11, 27] was “below the threshold” and the pKd [12, 27] was 3.54. The pKd [13, 27] was 5.35, the pKd [14, 27] was 5.18 and the pKd [15, 27] was 3.94. The pKd [16, 27] was 3.51, the pKd [17, 27] was “below the threshold” and the pKd [18, 27] was 4.64. The pKd [19, 27] was “below the threshold”, the pKd [20, 27] was “below the threshold” and the pKd [21, 27] was “below the threshold”. The pKd [22, 27] was “below the threshold”, the pKd [23, 27] was 4.67 and the pKd [24, 27] was 4.66. For the same binder, the pKd [25, 27] was “below the threshold” and the pKd [26, 27] was 3.61.

With GKKSVKHSKI [ACOT6, Q3I5F7] the pKd [1, 29] was “below the threshold”, the pKd [2, 29] was “below the threshold” and the pKd [3, 29] was 4.03. The pKd [4, 29] was “below the threshold”, the pKd [5, 29] was “below the threshold” and the pKd [6, 29] was “below the threshold”. The pKd [7, 29] was “below the threshold”, the pKd [8, 29] was 3.92 and the pKd [9, 29] was 3.66. For the same binder, the pKd [10, 29] was “below the threshold”, the pKd [11, 29] was “below the threshold” and the pKd [12, 29] was 3.5. For the same binder, the pKd [13, 29] was 3.56, the pKd [14, 29] was “below the threshold” and the pKd [15, 29] was “below the threshold”. The pKd [16, 29] was “below the threshold”, the pKd [17, 29] was “below the threshold” and the pKd [18, 29] was 3.65. The pKd [19, 29] was “below the threshold”, the pKd [20, 29] was “below the threshold” and the pKd [21, 29] was “below the threshold”. For the same binder, the pKd [22, 29] was “below the threshold”, the pKd [23, 29] was 3.92 and the pKd [24, 29] was 3.7. The pKd [25, 29] was “below the threshold” and the pKd [26, 29] was “below the threshold”.

For FVHPILQSAV [PRKCA, P17252], the pKd [1, 29] was “below the threshold”, the pKd [2, 29] was “below the threshold” and the pKd [3, 29] was 5.35. For the same binder, the pKd [4, 29] was “below the threshold”, the pKd [5, 29] was 3.58 and the pKd [6, 29] was “below the threshold”. The pKd [7, 29] was 5.09, the pKd [8, 29] was 4.32 and the pKd [9, 29] was 4.82. The pKd [10, 29] was 3.49, the pKd [11, 29] was “below the threshold” and the pKd [12, 29] was “below the threshold”. The pKd [13, 29] was 4.04, the pKd [14, 29] was “below the threshold” and the pKd [15, 29] was “below the threshold”. For the same binder, the pKd [16, 29] was “below the threshold”, the pKd [17, 29] was “below the threshold” and the pKd [18, 29] was 3.74. For the same binder, the pKd [19, 29] was 4.29, the pKd [20, 29] was 4.21 and the pKd [21, 29] was “below the threshold”. For the same binder, the pKd [22, 29] was “below the threshold”, the pKd [23, 29] was 4.22 and the pKd [24, 29] was “below the threshold”. For the same binder, the pKd [25, 29] was “below the threshold” and the pKd [26, 29] was “below the threshold”.
